Laboratory results as given in patent publication US20130225503A1, “TEX14 PEPTIDES AS NOVEL ANTITUMOR AGENTS” (Baylor Licnensing Group, priority 2009, published 2013).
Entries after “also recorded” stand apart in the source; their conditions may differ.

Legend:
Type in all cases: cell-based
TSG-CEP interaction = target: T1, TSG-CEP interaction (Homo sapiens, UniProt Q53EZ4); assay: Competition assay using the mammalian two-hybrid system, TSG101-CEP55 interaction; conditions: pcDNA3 overexpression in HEK293T cells; FIG. 6B, FIG. 7 center
T1 construct: expressed in transfected cells; host or cells: HEK293T
T1 sequence (Q53EZ4 157-236 limits assumed): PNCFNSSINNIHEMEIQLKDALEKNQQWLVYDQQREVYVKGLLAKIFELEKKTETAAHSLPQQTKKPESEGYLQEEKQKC
From the text: (§1) A modified form of the CheckMate/Flexi vector mammalian two-hybrid system (Promega) was used to study the interactions of proteins in mammalian cells. A pGL4Cherry (mCherry/GAL4UAS/Hygro) vector was engineered from the pGL4.31 (luc2P/GAL4UAS/Hygro) vector by replacing the Luc2P firefly luciferase reporter sequence with the mCherry sequence. The pACT vector expresses a protein of interest, “X,” fused to a transcriptional activation domain (VP16-AD) and the pBIND vector expresses the other protein of interest, “Y,” fused to a DNA-binding domain (GAL4-BD) and Renilla luciferase by separate promoters. […]
(§2) Sequences encoding the truncated TEX14, CEP55, ALIX, or TSG101 fragments were cloned into the multiple cloning regions of the pACT and pBIND vectors. Some exemplary constructs used are summarized in FIGS. 6A and B. pACT (protein X), pBIND (protein Y), and pGL4Cherry (mCherry/GAL4UAS/Hygro) were transiently cotransfected into HEK293T cells using Fugene 6/HD transfection reagent, and the cells were examined 44 h later for red fluorescence by using an Axiovert 40 CFL microscope (Carl Zeiss). […] The cells were lysed by using Renilla luciferase assay reagent (Promega), and red fluorescence and Renilla luciferase were measured by using a Polar Star Omega microplate reader (BMG LabTech). […]

[1] = target: T2, hinge region of human CEP55 (Homo sapiens, UniProt Q53EZ4); assay: Modified mammalian two-hybrid assay in HEK293T cells, TEX14 fragment binding to CEP55; conditions: transfected HEK293T cells; FIG. 5C, 5E, 5F, FIG. 7
T2 construct: expressed in transfected cells; host or cells: HEK293T
T2 sequence (Q53EZ4 157-236 limits assumed): T1 sequence (Q53EZ4 157-236 limits assumed)
From the text: as §1, §2

ALIX-CEP interaction = target: T3, ALIX-CEP interaction (Homo sapiens, UniProt Q53EZ4); assay: Competition assay using the mammalian two-hybrid system, ALIX-CEP55 interaction; conditions: pcDNA3 overexpression in HEK293T cells; FIG. 6A, FIG. 7 left
T3 construct: expressed in transfected cells; host or cells: HEK293T
T3 sequence (Q53EZ4 157-236 limits assumed): T1 sequence (Q53EZ4 157-236 limits assumed)
From the text: as §1, §2

[2] = test system: full-length ALIX localization to the midbody; assay: Cotransfection with YFP full-length ALIX into HeLa cells, ALIX midbody localization and interconnected cells
From the text: The mouse TEX14 open reading frame (ORF) sequence was ligated into the BamHI and SalI sites of the pCMV-tag2 vector (Stratagene), which contains an N-terminal FLAG tag sequence. The mouse CEP55 ORF was cloned from testis cDNA and subcloned into the EcoRI and SalI sites of the pcDNA3 (Invitrogen) vector containing an N-terminal MYC tag sequence. The truncated and mutant TEX14 (TX, AAAX3A) and the full-length ALIX sequences were ligated into the BamHI and NotI or the NotI and XbaI sites, respectively, of the pcDNA3 vectors, while mCherry or YFP sequences were subcloned into the KpnI and BamHI sites. Purified plasmid DNA was obtained by using a QIAprep spin miniprep kit (Qiagen), and all constructs were sequenced for integrity.
HEK293T or HeLa cells were maintained in Dulbecco's modified Eagle medium (Invitrogen) supplemented with 10% fetal calf serum (SAFC Biosciences), 1% L-glutamine (Invitrogen), and penicillinstreptomycin (Invitrogen) and grown on poly-D-lysine (Sigma)-coated coverslips in culture plates at 37 C° in a humidified 5% CO2 atmosphere. For immunoprecipitation and immunoblot experiments, cells were seeded at 50 to 80% confluence in […] (Corning) and transiently transfected using Fugene 6/HD transfection reagent (Roche) according to the manufacturer's instructions. […]

## TX: GPPX3Y region of human TEX14, the 60 amino acids from 754 to 813 (LRNIEQILDEVEMKQKEQEERMSLWATSREFTNAYKLPLAVGPPSLNYIPPVLQLSGGQK; UniProt Q8IWB6 754-813, looked up, fragment)
TSG-CEP interaction
  effect of overexpression on TSG-CEP interaction: suppressed
[1]
  binding to CEP55 hinge region (mCherry/Renilla luciferase or mCherry/YFP ratio): strongly binds; also recorded: typically stronger than the ALIX-CEP or TSG-CEP interactions
ALIX-CEP interaction
  effect of overexpression on ALIX-CEP interaction: suppressed
[2]; HeLa cells cotransfected with pcDNA-mCherry-truncated TEX14 and pcDNA-YFP full-length ALIX
  full-length ALIX localization to the midbody: inhibits full-length ALIX localization to the midbody
[2]; HeLa cells, FIG. 6G left
  interconnecting cells (intercellular bridges) in transfected cells: several interconnecting cells were visualized
